Experimental data: patent publication US20080274950A1 (BABRAHAM INSTITUTE, published 2008)

Key:
[1] = target: T1, full length chicken N-cadherin with the mutation R25C expressed on K562 cells (chicken, UniProt P10288 165-912, R25C); test: Protein A Dynabeads coated with dimeric D27C N-cadherin-Fc mixed with K562 transfectants
T1 construct: whole, on cells; also called K562 R25C
T1 sequence (looked up): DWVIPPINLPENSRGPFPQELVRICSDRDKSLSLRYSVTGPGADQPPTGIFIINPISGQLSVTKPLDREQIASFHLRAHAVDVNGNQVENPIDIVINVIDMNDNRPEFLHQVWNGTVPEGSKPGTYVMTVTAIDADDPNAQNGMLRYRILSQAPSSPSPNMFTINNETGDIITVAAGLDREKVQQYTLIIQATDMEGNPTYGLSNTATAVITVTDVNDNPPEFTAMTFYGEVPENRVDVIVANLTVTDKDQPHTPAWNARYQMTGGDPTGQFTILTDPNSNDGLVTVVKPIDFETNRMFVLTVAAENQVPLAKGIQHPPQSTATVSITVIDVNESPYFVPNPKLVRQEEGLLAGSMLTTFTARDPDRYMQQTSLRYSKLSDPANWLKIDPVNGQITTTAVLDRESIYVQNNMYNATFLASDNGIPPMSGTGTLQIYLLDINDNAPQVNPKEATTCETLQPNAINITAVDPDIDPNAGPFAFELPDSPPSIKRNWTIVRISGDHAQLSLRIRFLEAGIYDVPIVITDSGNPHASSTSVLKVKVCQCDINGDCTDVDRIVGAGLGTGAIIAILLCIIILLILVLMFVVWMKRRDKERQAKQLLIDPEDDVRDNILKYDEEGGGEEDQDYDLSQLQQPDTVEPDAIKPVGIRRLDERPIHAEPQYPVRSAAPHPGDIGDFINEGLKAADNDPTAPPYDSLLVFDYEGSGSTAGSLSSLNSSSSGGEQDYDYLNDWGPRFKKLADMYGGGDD
Description: (§1) In an alternative protocol, Dynabeads (Dynal) coupled to Protein A were coated with dimeric N-cadherin-Fc (1 μg/ml), bearing the mutation D27C, for 1 hour at room temperature in the presence of 0.1% Tween 20 and 4 mM EGTA (to prevent aggregation). The beads were then washed with HBSS. K562 transfectants expressing cell surface Ncadherin with the mutations D1C, R25C or D27C, were treated with 10 mM DTT for 15 minutes at 37° C., then washed and resuspended in HBSS without DTT. Cells ([…]) were mixed with 3 μl of beads coated with mutant N-cadherin-Fc in a final volume of 100 μl HBSS. Cells and beads were incubated together at room temperature for 2 hours with slow rotation to allow adhesion. Approximately five beads became attached to each cell and there was some clumping of attached and unattached beads. Iodoacetamide, 2 μl of 1.0M solution, was then added to alkylate free sulphydryl groups. The samples were then spun down at 1500 g and the cells were lysed in HBSS, 0.075% SDS, 1% NP40, 0.2 mM AEBSF, for 4 minutes on ice. Beads were then isolated with a magnet and washed twice with lysis buffer. Disulphide-bonded complexes between cellular cadherin and the Fc-fusion protein were analysed by SDS-PAGE and immunoblotting for cadherin cytoplasmic domain as described above. To ensure equal loading, membranes were stripped and re-assayed with anti-Human Fc.

[2] = target: T2, full length chicken N-cadherin with the mutation D1C expressed on K562 cells (chicken, UniProt P10288 165-912, D1C); test: as above
T2 construct: whole, on cells; also called D1C cells; K562 D1C
T2 sequence (looked up): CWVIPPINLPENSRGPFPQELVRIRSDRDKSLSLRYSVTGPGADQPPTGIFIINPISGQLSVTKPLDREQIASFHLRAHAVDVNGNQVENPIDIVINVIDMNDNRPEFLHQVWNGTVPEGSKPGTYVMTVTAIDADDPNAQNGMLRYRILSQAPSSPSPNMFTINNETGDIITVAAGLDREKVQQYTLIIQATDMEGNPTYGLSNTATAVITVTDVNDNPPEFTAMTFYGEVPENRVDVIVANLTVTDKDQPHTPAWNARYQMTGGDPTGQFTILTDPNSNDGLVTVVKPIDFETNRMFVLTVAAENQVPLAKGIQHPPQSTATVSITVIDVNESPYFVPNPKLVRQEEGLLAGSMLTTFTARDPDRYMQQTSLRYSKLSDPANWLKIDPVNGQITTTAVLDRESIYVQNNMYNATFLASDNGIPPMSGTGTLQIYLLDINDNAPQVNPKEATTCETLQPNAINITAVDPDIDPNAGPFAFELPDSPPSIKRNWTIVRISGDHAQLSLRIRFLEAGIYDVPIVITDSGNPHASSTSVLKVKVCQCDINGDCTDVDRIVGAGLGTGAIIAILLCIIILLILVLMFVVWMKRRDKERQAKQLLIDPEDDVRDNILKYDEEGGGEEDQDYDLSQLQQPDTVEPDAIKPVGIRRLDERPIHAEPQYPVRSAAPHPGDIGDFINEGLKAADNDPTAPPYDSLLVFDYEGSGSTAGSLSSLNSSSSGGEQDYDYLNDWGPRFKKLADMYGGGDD
Description: as §1

[3] = target: T3, full length chicken N-cadherin with the mutation D27C expressed on K562 cells (chicken, UniProt P10288 165-912, D27C); test: as above
T3 construct: whole, on cells; also called K562 D27C
T3 sequence (looked up): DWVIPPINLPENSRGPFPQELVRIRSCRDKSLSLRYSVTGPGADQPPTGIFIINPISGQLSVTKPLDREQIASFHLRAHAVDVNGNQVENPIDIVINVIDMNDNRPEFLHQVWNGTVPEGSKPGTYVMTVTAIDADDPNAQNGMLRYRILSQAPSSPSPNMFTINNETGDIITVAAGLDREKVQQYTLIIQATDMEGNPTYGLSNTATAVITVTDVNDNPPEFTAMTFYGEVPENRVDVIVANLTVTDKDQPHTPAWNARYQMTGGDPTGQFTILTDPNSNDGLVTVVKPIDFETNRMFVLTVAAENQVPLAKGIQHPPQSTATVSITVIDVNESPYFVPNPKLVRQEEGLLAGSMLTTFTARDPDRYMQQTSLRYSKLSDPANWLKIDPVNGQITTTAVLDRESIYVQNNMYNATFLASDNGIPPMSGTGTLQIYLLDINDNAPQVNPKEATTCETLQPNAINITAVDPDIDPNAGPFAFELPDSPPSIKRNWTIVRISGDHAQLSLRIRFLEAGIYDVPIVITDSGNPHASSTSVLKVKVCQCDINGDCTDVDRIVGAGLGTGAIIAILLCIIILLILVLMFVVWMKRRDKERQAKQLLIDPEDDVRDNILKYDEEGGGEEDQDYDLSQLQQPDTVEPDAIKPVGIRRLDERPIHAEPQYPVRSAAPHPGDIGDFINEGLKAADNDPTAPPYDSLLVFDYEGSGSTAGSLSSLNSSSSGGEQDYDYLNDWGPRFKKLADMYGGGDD
Description: as §1

[4] = target: T2, full length chicken N-cadherin with the …; test: cell adhesion to coated monomeric N-cadherin-Fc, then non-reducing SDS-PAGE and immunoblot
Description: Monomeric N-cadherin-Fc (1 μg/ml) bearing the three alternative cysteine point mutations, D1C, R25C or D27C, was immobilised on 96-well plates with goat antihuman IgG Fe as previously described for E-cadherin-Fc (Corps et al., 2001). Unbound cadherin was removed by washing with HBSS, 0.1% BSA, followed by HBSS alone. The plates were not blocked with additional protein. K562 transfectants expressing N-cadherin bearing complementary or non-complementary point mutations (6×10^4 Cells in 100 μl HBSS containing 10 mM DTT), in single cell suspension, were added to the coated wells which contained 100 μl HBSS. The final concentration of DTT was therefore 5 mM DTT during the adhesion stage. The cells were allowed to settle for 10 min at room temperature before incubation at 37° C. for 30 minutes to complete adhesion. […] Adherent cells from a pool of 4 wells for each experimental condition were then solubilised in sample buffer for SDS-PAGE and analysed on NuPAGE Novex gradient gels, 3-8% or 4-12%, (Invitrogen), under nonreducing or reducing conditions. Cellular cadherin was detected by immunoblotting using rabbit pan anti-cadherin antiserum specific for the cytoplasmic domain. Alternatively, N-cadherin-Fc fusion protein was detected with rabbit anti-human IgG, Fc-specific (Pierce, code 31142). […]

[5] = target: T4, human N-cadherin naturally expressed on DX3 melanoma cells (human, UniProt P19022 160-906); test: adhesion of DX3 cells to coated monomeric N-cadherin-Fc, oxidising buffer
T4 construct: also called DX3 Cells; N-cadherin+ve DX3 melanoma cells
T4 sequence: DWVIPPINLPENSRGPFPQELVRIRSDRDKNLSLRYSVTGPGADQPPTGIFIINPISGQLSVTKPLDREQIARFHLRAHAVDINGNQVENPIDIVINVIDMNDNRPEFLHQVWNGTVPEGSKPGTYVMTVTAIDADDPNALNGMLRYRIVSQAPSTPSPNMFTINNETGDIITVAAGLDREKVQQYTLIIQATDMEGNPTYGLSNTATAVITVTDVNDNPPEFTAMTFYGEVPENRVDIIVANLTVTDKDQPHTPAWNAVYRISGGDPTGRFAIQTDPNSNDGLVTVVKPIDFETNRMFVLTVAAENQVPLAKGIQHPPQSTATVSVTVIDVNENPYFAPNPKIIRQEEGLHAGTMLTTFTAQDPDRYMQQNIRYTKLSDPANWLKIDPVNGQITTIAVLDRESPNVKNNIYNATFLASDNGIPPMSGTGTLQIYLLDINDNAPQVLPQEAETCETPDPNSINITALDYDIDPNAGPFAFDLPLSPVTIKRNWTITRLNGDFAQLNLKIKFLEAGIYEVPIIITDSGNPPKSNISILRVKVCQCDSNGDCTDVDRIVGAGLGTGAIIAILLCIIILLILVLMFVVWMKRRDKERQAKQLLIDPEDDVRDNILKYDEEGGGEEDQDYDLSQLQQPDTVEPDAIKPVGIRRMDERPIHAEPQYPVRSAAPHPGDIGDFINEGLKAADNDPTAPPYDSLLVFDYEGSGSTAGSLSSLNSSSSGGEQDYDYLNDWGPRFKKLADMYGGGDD
Description: Monomeric or dimeric N-cadherin-Fc fusion protein in Cos cell supernatants was added as described for the ELISA assay. DX3 Cells, a human melanoma cell line which expresses N-cadherin, were dissociated with Cell Dissociation Solution (Sigma, code C5789), resuspended in HBSS with 2% FCS and assessed for adhesion to wild type or mutant N-cadherin-Fc as previously described (Corps et al., 2001). Microscopic examination established that the cells were present as a single cell suspension as they settled onto the plate. For assays conducted in reducing conditions, 10 mM DTT was present during the adhesion and washing steps. Determinations were conducted in triplicate and results are presented as mean +/−sem.

B1: chicken N-cadherin-Fc fusion protein with the mutation D27C, dimeric (conventional fusion protein dimerised via Fc), coated to Protein A magnetic beads (Fc fusion, UniProt P10288 165-728, looked up)
chain: DWVIPPINLPENSRGPFPQELVRIRSCRDKSLSLRYSVTGPGADQPPTGIFIINPISGQLSVTKPLDREQIASFHLRAHAVDVNGNQVENPIDIVINVIDMNDNRPEFLHQVWNGTVPEGSKPGTYVMTVTAIDADDPNAQNGMLRYRILSQAPSSPSPNMFTINNETGDIITVAAGLDREKVQQYTLIIQATDMEGNPTYGLSNTATAVITVTDVNDNPPEFTAMTFYGEVPENRVDVIVANLTVTDKDQPHTPAWNARYQMTGGDPTGQFTILTDPNSNDGLVTVVKPIDFETNRMFVLTVAAENQVPLAKGIQHPPQSTATVSITVIDVNESPYFVPNPKLVRQEEGLLAGSMLTTFTARDPDRYMQQTSLRYSKLSDPANWLKIDPVNGQITTTAVLDRESIYVQNNMYNATFLASDNGIPPMSGTGTLQIYLLDINDNAPQVNPKEATTCETLQPNAINITAVDPDIDPNAGPFAFELPDSPPSIKRNWTIVRISGDHAQLSLRIRFLEAGIYDVPIVITDSGNPHASSTSVLKVKVCQCDINGDCTDVDRIVGAGLGT
notes: extracellular domain; also called dimeric N-cadherin-Fc D27C; D27C beads; not shown: hinge region, CH2 and CH3 domains of human IgG1 heavy chain (vector pIgSig)
- beads attached to each cell [1]: ~5 beads per cell
- beads attached to each cell [2]: ~5 beads per cell
- beads attached to each cell [3]: ~5 beads per cell

B2: monomeric chicken N-cadherin-Fc with the mutation R25C (Fc fusion, UniProt P10288 165-728, looked up)
chain: DWVIPPINLPENSRGPFPQELVRICSDRDKSLSLRYSVTGPGADQPPTGIFIINPISGQLSVTKPLDREQIASFHLRAHAVDVNGNQVENPIDIVINVIDMNDNRPEFLHQVWNGTVPEGSKPGTYVMTVTAIDADDPNAQNGMLRYRILSQAPSSPSPNMFTINNETGDIITVAAGLDREKVQQYTLIIQATDMEGNPTYGLSNTATAVITVTDVNDNPPEFTAMTFYGEVPENRVDVIVANLTVTDKDQPHTPAWNARYQMTGGDPTGQFTILTDPNSNDGLVTVVKPIDFETNRMFVLTVAAENQVPLAKGIQHPPQSTATVSITVIDVNESPYFVPNPKLVRQEEGLLAGSMLTTFTARDPDRYMQQTSLRYSKLSDPANWLKIDPVNGQITTTAVLDRESIYVQNNMYNATFLASDNGIPPMSGTGTLQIYLLDINDNAPQVNPKEATTCETLQPNAINITAVDPDIDPNAGPFAFELPDSPPSIKRNWTIVRISGDHAQLSLRIRFLEAGIYDVPIVITDSGNPHASSTSVLKVKVCQCDINGDCTDVDRIVGAGLGT
notes: extracellular domain; not shown: hinge region, CH2 and CH3 domains of human IgG1 heavy chain (vector pIgSig)
- binding result [4]: binds
- binding result [5]: binds
